Molecular target: Muc16 CAR 53B6 with a V5 tag attached to its N-terminus via matriptase cleavable linker TPS6 45aa
Sequence (chain, as listed by the source): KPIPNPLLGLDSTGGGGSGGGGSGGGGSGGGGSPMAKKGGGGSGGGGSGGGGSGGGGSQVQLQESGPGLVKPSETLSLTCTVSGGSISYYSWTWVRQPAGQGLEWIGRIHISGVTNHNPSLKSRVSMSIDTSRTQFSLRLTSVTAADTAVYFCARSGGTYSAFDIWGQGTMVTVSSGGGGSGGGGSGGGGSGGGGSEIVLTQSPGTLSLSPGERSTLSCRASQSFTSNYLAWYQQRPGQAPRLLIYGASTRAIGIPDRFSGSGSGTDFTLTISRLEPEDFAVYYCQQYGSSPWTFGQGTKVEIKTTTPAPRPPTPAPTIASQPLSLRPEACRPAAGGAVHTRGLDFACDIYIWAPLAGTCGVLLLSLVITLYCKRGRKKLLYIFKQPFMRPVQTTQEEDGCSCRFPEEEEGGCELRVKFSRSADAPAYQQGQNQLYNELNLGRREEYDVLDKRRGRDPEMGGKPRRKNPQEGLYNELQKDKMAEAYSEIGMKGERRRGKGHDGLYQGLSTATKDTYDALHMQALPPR

B1: endogenous matriptase on OVCAR3, MDA-MB-231 and NCI-H292 cells (protein)
chain: MGSDRARKGGGGPKDFGAGLKYNSRHEKVNGLEEGVEFLPVNNVKKVEKHGPGRWVVLAAVLIGLLLVLLGIGFLVWHLQYRDVRVQKVFNGYMRITNENFVDAYENSNSTEFVSLASKVKDALKLLYSGVPFLGPYHKESAVTAFSEGSVIAYYWSEFSIPQHLVEEAERVMAEERVVMLPPRARSLKSFVVTSVVAFPTDSKTVQRTQDNSCSFGLHARGVELMRFTTPGFPDSPYPAHARCQWALRGDADSVLSLTFRSFDLASCDERGSDLVTVYNTLSPMEPHALVQLCGTYPPSYNLTFHSSQNVLLITLITNTERRHPGFEATFFQLPRMSSCGGRLRKAQGTFNSPYYPGHYPPNIDCTWNIEVPNNQHVKVRFKFFYLLEPGVPAGTCPKDYVEINGEKYCGERSQFVVTSNSNKITVRFHSDQSYTDTGFLAEYLSYDSSDPCPGQFTCRTGRCIRKELRCDGWADCTDHSDELNCSCDAGHQFTCKNKFCKPLFWVCDSVNDCGDNSDEQGCSCPAQTFRCSNGKCLSKSQQCNGKDDCGDGSDEASCPKVNVVTCTKHTYRCLNGLCLSKGNPECDGKEDCSDGSDEKDCDCGLRSFTRQARVVGGTDADEGEWPWQVSLHALGQGHICGASLISPNWLVSAAHCYIDDRGFRYSDPTQWTAFLGLHDQSQRSAPGVQERRLKRIISHPFFNDFTFDYDIALLELEKPAEYSSMVRPICLPDASHVFPAGKAIWVTGWGHTQYGGTGALILQKGEIRVINQTTCENLLPQQITPRMMCVGFLSGGVDSCQGDSGGPLSSVEADGRIFQAGVVSWGDGCAQRNKPGVYTRLPLFRDWIKENTGV
  removal of V5 tag (linker cleavage, flow cytometry): the endogenous matriptase showed limited activity

From patent publication US20220227832
